Laboratory results as given in patent US20250361288A1 (Gilead, published 2025).
Numbering of substitutions follows the chain as printed. Names may count otherwise.

T1: mouse HVEM extracellular domain fused with an Fc fragment at the C-terminus (mouse, UniProt Q80WM9 39-206, limits assumed)
T1 construct: extracellular domain; Bought; also called mHVEM; not shown: Fc fragment at the C-terminus
T1 sequence (looked up): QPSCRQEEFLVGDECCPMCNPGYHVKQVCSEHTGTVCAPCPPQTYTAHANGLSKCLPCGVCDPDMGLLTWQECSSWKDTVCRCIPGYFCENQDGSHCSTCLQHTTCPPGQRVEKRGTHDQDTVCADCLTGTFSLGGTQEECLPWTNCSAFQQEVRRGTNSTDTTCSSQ

T2: human HVEM extracellular domain fused with an Fc fragment at the C-terminus (human, UniProt Q92956 39-202)
T2 construct: extracellular domain; Bought; also called hHVEM; not shown: Fc fragment at the C-terminus
T2 sequence (looked up): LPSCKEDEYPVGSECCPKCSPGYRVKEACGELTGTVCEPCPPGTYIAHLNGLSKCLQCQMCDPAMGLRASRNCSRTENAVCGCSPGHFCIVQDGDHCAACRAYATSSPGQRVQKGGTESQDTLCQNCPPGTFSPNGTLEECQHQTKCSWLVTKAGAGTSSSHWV

T3: recombinant DcR3 protein (human DcR3 residues 33-300 linked to the N-terminal of rabbit Fc) (human, UniProt O95407 33-300)
T3 construct: range 33-300; Expressed in Expi293F, purified on protein A; not shown: rabbit Fc
T3 sequence (looked up): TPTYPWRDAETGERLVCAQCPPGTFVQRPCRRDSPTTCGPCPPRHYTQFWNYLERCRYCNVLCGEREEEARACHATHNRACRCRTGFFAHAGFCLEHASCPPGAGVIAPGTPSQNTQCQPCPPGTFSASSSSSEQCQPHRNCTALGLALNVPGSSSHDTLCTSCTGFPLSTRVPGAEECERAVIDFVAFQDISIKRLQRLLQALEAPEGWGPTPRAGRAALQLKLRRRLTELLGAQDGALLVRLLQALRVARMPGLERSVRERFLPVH

B1: LIGHT-5 (ligand)
chain: DGPAGSWEQLIQERRSHEVNPAAHLTGANSSLTGSGGPLLWETQLGLAFLRGLSYHDGALVVTKAGYYYIYSKVQLGGVGCPLGLASPITHGLYKRTPRYPEELELLVSQQSPCGSATSSSRVWQDSSFLGGVVHLEAGEKVVVRVLDERLVRLLDGTRSYFGAFMV
notes: Printed mutations: T161P, R189S, W198Q, R228L; Soluble protein carries an N-terminal His tag
B2: LIGHT (74-240) (ligand)
chain: B1 chain with P88T, S116R, Q125W, L155R
notes: Soluble protein carries an N-terminal His tag; also called wild-type human LIGHT; LIGHT (74-240) (wt)
B3: LIGHT-36 (ligand)
chain: B1 chain with P88T, S116R, Q125W, H135Y, L155R
notes: Printed mutations: H208Y; Soluble protein carries an N-terminal His tag
B4: LIGHT-31 (ligand)
chain: B1 chain with S87R, P88S, S116R, Q125W, L147S, L155R
notes: Printed mutations: S160R, T161S, L220S; Soluble protein carries an N-terminal His tag
B5: LIGHT-34 (ligand)
chain: B1 chain with P88S, S116R, Q125W, L147S, L155R
notes: Printed mutations: T161S, L220S; Soluble protein carries an N-terminal His tag
B6: LIGHT-29 (ligand)
chain: B1 chain with S87N, P88T, S116R, Q125W, L147S, L155R
notes: Printed mutations: S160N, L220S; Soluble protein carries an N-terminal His tag
B7: LIGHT-28 (ligand)
chain: B1 chain with S87N, P88T, S116R, Q125W, K141E, L154M, L155R
notes: Printed mutations: S160N, K214E, L227M; Soluble protein carries an N-terminal His tag
B8: LIGHT-42 (ligand)
chain: B1 chain with G77R, P88T, S116R, Q125W, L147S, L155R
notes: Printed mutations: G150R, L220S; Soluble protein carries an N-terminal His tag
B9: LIGHT-26 (ligand)
chain: B1 chain with S87H, P88T, S116R, Q125W, L147S, E149Q, L155R
notes: Printed mutations: S160H, L220S, E222Q; Soluble protein carries an N-terminal His tag
B10: LIGHT-27 (ligand)
chain: B1 chain with S87N, P88S, S116R, Q125W, L147S, E149D, L155R
notes: Printed mutations: S160N, T161S, L220S, E222D; Soluble protein carries an N-terminal His tag
B11: LIGHT-52 (ligand)
chain: B1 chain with P88T, S116R, Q125W, L147S, L155R
notes: Printed mutations: L220S; Soluble protein carries an N-terminal His tag

target: T4, mouse LTβR extracellular domain fused with an Fc fragment at the C-terminus (mouse, UniProt P50284 31-223); assay: phage ELISA
T4 construct: extracellular domain; Bought; also called mLTβR; not shown: Fc fragment at the C-terminus
Protocol: (§1) Individual clones from the fourth selection round were grown in 96-well deep well blocks in 100 μl of 2YT broth supplemented with 50 μg/ml ampicillin at 37° C. and 220 rpm for 5 hours. Then, 5 μl of helper phages were added to each well and incubated at 37° C. for 30 minutes. After centrifuging at 3,000 rpm for 10 minutes, the cells were resuspended and grown overnight in 150 μl/well of 2YT broth supplemented with 50 μg/ml ampicillin and 50 μg/ml kanamycin.
(§2) For the ELISA screening, 96-well ELISA plates were coated with target proteins (1 μg/ml in PBS) at 4° C. overnight and then blocked with 2% BSA for 2 hours at room temperature. The supernatant containing phage particles was added to the plates and incubated at room temperature for 1 hour. After incubation, the plates were washed five times with PBST. HRP (horseradish peroxidase) conjugated anti-M13 antibody (Sino Biological, China) was added to the wells and incubated at room temperature for 1 hour. Following another round of washing five times with PBST, 50 μl of TMB (3,3′, 5,5″-tetramethylbenzidine, #34029, ThemoFisher) was added to each well. After 5 minutes, the reaction was stopped by adding 50 μl stop solution (#C1058, Solarbio, China). The absorbance at 450 nm (OD450) was measured using a plate reader (SpectraMax M5, Molecule Devices). Wells coated with BSA were used as negative controls. Phage clones with an ELISA score ratio (target/BSA)>3 were considered positive clones.

T4 sequence (P50284 31-223): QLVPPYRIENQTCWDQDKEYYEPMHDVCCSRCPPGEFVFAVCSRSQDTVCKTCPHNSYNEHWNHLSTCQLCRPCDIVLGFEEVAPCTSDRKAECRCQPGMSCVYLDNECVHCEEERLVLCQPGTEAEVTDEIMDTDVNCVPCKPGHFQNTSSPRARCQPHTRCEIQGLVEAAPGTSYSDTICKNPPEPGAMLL

Binder	binding result
B1	binds

target: T1, mouse HVEM extracellular domain fused …; assay: phage ELISA
Protocol: as §1, §2

Binder	binding result
B2	binds
B3	binds
B4	binds
B5	binds
B6	binds
B1	binds
B7	binds
B8	binds
B9	binds
B10	binds
B11	binds

target: T5, human LTβR extracellular domain fused with an Fc fragment at the C-terminus (human, UniProt P36941 31-227); assay: ELISA on coated target-Fc
T5 construct: extracellular domain; Bought; also called hLTβR; not shown: Fc fragment at the C-terminus
Protocol: (§3) Nunc MaxiSorp 96-well plates (Thermofisher) were coated with target proteins (1 μg/ml), and then blocked with 2% BSA-PBS buffer for one hour. Serial dilutions of the LIGHT muteins were added with a maximum concentration of 200 ng/ml. The plates were incubated for one hour, washed four times with PBST, and then incubated with mouse anti-His tag antibody (#105327, Sino Biological) for 1 hour. The plates were further incubated with HRP-conjugated goat anti-mouse secondary antibody (#SSA006, Sino Biological) before being washed three times with PBST and treated with TMB substrate (#34029, ThermoFisher). The plates were read at 450 nm on a SpectraMax M5 microplate reader (Molecule Devices). The ELISA results were analyzed using GraphPad Prism 9.0 software and the EC50s (half maximal effective concentration) were summarized in Table 5-1 and Table 5-2.

T5 sequence (P36941 31-227): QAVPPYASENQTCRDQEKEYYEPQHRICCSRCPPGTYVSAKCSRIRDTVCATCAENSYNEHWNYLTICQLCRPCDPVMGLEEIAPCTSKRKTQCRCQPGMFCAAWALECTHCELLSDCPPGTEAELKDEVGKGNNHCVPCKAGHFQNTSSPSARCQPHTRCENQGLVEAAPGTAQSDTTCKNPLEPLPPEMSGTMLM

Binder	EC50 [µg/mL]
B2	0.22
B3	0.19
B4	0.0867
B5	0.059
B6	0.0452
B1	0.0538
B7	0.0811
B8	0.0639
B9	0.0727
B10	0.0827
B11	0.0577

target: T4, mouse LTβR extracellular domain fused …; assay: ELISA on coated target-Fc
Protocol: as §3

Binder	EC50 [µg/mL]
B3	0.27
B4	0.0747
B5	0.0446
B6	0.0209
B7	0.256
B8	0.025
B9	0.0483
B10	0.0642
B11	0.0279

target: T2, human HVEM extracellular domain fused …; assay: ELISA on coated target-Fc
Protocol: as §3

Binder	EC50 [µg/mL]
B3	0.137
B4	0.051
B5	0.0202
B6	0.0428
B7	0.0873
B8	0.0814
B9	0.0484
B10	0.0504
B11	0.019

target: T5, human LTβR extracellular domain fused …; assay: ELISA on coated target-Fc; remark: another data set of the same source
Protocol: as §3

Binder	EC50 [nM]
B2	0.365
B11	0.33

target: T4, mouse LTβR extracellular domain fused …; assay: ELISA on coated target-Fc; remark: another data set of the same source
Protocol: as §3

Binder	EC50 [nM]
B2	0.885
B11	2.07

target: T2, human HVEM extracellular domain fused …; assay: ELISA on coated target-Fc; remark: another data set of the same source
Protocol: as §3

Binder	EC50 [nM]
B2	0.992
B11	0.599

target: T3, recombinant DcR3 protein (human DcR3 …); assay: ELISA on coated DcR3-rabbit Fc
Protocol: To test whether the muteins can bind to DcR3, the recombinant DcR3 protein was generated by linking human DcR3 residues 33-300 to the N-terminal of rabbit Fc. The recombinant proteins were expressed in Expi293F and affinity-purified using protein A beads, as previously described. Human DcR3 proteins were immobilized onto maxiSorp 96-well ELISA plates (Thermo Fisher) at a concentration of 0.5 μg/mL and then blocked with 2% BSA-PBS buffer for one hour. The LIGHT variants were added to the plates at various dilutions, with a maximum concentration of 10 nM. The plates were incubated for one hour, washed four times with PBST, and then incubated with mouse anti-His tag antibody (#105327, Sino Biological) for 1 hour. The plates were further incubated with HRP-conjugated goat anti-mouse secondary antibody (#SSA006, Sino Biological) before being washed three times with PBST and treated with TMB substrate (#34029, ThermoFisher). The plates were read at 450 nm on a SpectraMax M5 microplate reader (Molecule Devices). The ELISA results were analyzed using GraphPad Prism 9.0 software and the EC50s (half maximal effective concentration) were summarized in Table 5-2.

Binder	EC50 [nM]
B2	0.247
B11	0.19

target: T2, human HVEM extracellular domain fused …; assay: ELISA on coated target-Fc, Table 5-1
Protocol: as §3

Binder	binding result
B1	no binding
